Assay results as given in patent publication US20260069656A1, “Nutritive Polypeptides and Formulations Thereof, and Methods of Production and Use Thereof” (Axcella Health Inc., priority 2013, published 2026).
Like-named read-outs stand apart in the source and are kept apart here.

Columns and labels:
[1] = Oral pharmacokinetics in humans, plasma amino acid concentrations; parameters: species or system human; settings: in vivo
Protocol: The anabolic response to protein ingestion is predicated on the delivery of essential amino acids. The purpose of this study was to examine the changes in plasma amino acid concentrations in response to various proteins over a period of 240 minutes. […] Subjects were fasted overnight (>8 hrs) before oral pharmacokinetic study. […] Plasma amino acid concentrations were quantified by Quest Diagnostics or Laboratory Corporation of America. […] FIGS. 64-67 show the plasma time course of each measured amino acid and the aggregate groups, essential amino acids (EAA), branched chain amino acids (BCAA), and total amino acids (TAA), for WPI and SEQID-105. […] Subjects were fasted overnight (>8 hrs) before oral pharmacokinetic study. […] Plasma amino acid concentrations were quantified by Quest Diagnostics or Laboratory Corporation of America. The purpose of this study was to examine the changes in plasma amino acid concentrations in response to a methionine deficient nutritive protein over a period of 240 minutes. […] Plasma amino acid concentrations were quantified by Quest Diagnostics or Laboratory Corporation of America.

[2] = simulated gi fluid
[3] = rat, in vivo, po
Protocol: (§1) Rat pharmacokinetic studies. Male Sprague Dawley rats with indwelling jugular vein cannula (JVC) were purchased from Harlan Laboratories and acclimated to the Test Facility (Agilux Laboratories) for at least two days prior to study initiation. Prior to dose administration animals were fasted overnight (11-13 h) and remained fasted until completion of the study. Test articles were orally administered via a bulb-tipped 18 gauge stainless steel gavage needle attached to a syringe. The weight of all dose syringes were recorded prior to and following dosing to more accurately determine the amount of solution dosed. Serial blood samples (˜300 μL) were collected from the JVC at time 0 (pre-dose) and 0.25, 0.5, 1, 2, and 4 h post-dose. Blood samples were collected into tubes containing the anti-coagulant K2EDTA, a general protease inhibitor cocktail (Sigma P8340, diluted 1:100 in whole blood), and a DPP IV inhibitor (Millipore DPP4, diluted 1:100 in whole blood). Immediately following blood collection tubes were vortexed and stored on wet ice until processing to plasma by centrifugation (3,500 rpm at 5° C.) within 1 h of collection. Plasma samples were then transferred into new tubes and stored at −80° C.
(§2) The concentration of Glu, Ser, His, Gly, Thr, Arg, Ala, Tyr, Val, Met, Phe, Ile, Leu, and Lys in the plasma samples was determined by HPLC amino acid analysis, as described herein. Prior to HPLC amino acid analysis, insoluble particles were removed from plasma samples by centrifugation (1100×g at 4° C.) for 10 min. A 25 μL sample of the soluble fraction was then transferred to a 96-well plate, for some samples an internal standard (Norvaline, Agilent) was added to each plasma sample at final concentration of 0.5 mM.

[4] = Rat pharmacokinetic studies, plasma amino acids by HPLC; settings: oral administration to rats, doses of Table E33A
Protocol: as §1, §2

[5] = Intact half-life during simulated gastric fluid (SGF) digestion; settings: SGF pH 1.5, pepsin:polypeptide 1:20 w/w, 37° C.; produced in E. coli unless otherwise noted
[6] = Pancreatin-based in vitro digestion, free amino acids by RP-HPLC; settings: after 120 min SGF, Pancreatin SIF pH 6.5
Protocol: In this method, pancreatin, a mixture of enzymes, is used to simulate intestinal proteases. Specifically, the digestion of polypeptides into amino acids was analyzed by an in vitro Pancreatin-based digestion assay followed by free amino acid analysis using reversed phase HPLC (RP-HPLC). The nutritive polypeptide was added to SGF (0.92 g/L Pepsin (Sigma), 0.03 M NaCl titrated with HCl to pH 1.5) at a final concentration of 4 g/L and incubated at 37° C. for 120 min. After 120 min, Na2CO3 was added to a final concentration of 16 mM to quench the pepsin reaction. […] Time points were sampled from the reaction and quenched by heating to 95° C. for 5 min. Control samples were protease-free.
Analyses were performed using an Agilent 1100 series system. Primary amino acids were derivitized pre-column at room temperature, online, using o-phthalaldehyde (OPA). The OPA-derivatives were separated using the Zorbax Eclipse-AAA 4.6×150 mm, 3.5 μm column at 40° C. The separation gradient transitioned from 100% 40 mM Na2HPO4 pH 7.8 to 65% acetonitrile/methanol/water mixture (45/45/10) over 23 minutes. Analytes were detected by fluorescence at 340 nm Ex/450 nm Em.

[7] = Solubility of proteins (lyophilized/reconstituted or ultrafiltered); settings: produced in E. coli unless otherwise noted
[8] = rat, in vivo
Protocol: A rat pharmacokinetic study with oral administration of native and modified forms of SEQID-00363 was performed as described herein. The indigestible marker Cobalt-EDTA was formulated at 50 mg/L in the dosed protein solutions to monitor differences in intestinal transit rate between treatment groups and individual rats. Following the final blood collection (at t=4 h) rats were euthanized and the terminal ileum (20 cm of small intestine prior to the cecum) and its contents (the digesta) were collected into a pre-weighed tube. The ileum was flushed with saline and pooled with the digesta. The pH of the digesta was adjusted to ˜3.0 with HCl in order to inactivate all enzymes. The ileum samples were placed into separate pre-weighed 15 mL conical tubes. All samples were flash frozen in liquid nitrogen, and stored at −80° C. until further analysis. Individual ileum and ileum content weights were calculated and recorded for each sample.
A sample of the digesta, which exists as a heterogenous solution containing insoluble particles, was used in the Coomassie Plus Protein Assay, as described herein, to determine protein concentration.

Row | Molecule | SGF Half-life (t½) [5] [s] | Free Leu (μM) at 120 min time point of Pancreatin digest [6] [µM] | Solubility [7] [mg/mL] | other results
1 | SEQID-00426: methionine deficient nutritive protein (protein, listed as Thermomyces lanuginosus) EVSQDLFNQFNLFAQYSAAAYCGKNNDAPAGTNITCTGNACPEVEKADATFLYSFEDSGVGDVTGFLALDNTNKLIVLSFRGSRSIENWIGNLNFDLKEINDICSGCRGHDGFTSSWRSVADTLRQKVEDAVREHPDYRVVFTGHSLGGALATVAGADLRGNGYDIDVFSYGAPRVGNRAFAEFLTVQTGGTLYRITHTNDIVPRLPPREFGYSHSSPEYWIKSGTLVPVTRNDIVKIEGIDATGGNNQPNIPDIPAHLWYFGLIGTCL |  |  |  | plasma EAA time course vs basal, Dunnett multiple comparison test [1]: plasma EAA levels at the 30 and 60 min. time points are significantly different from the basal levels at time 0 min; plasma Methionine over time [1]: Methionine shows no significant change over time; plasma amino acid levels across time, 1-way ANOVA [1]: significant differences across time for Glu and EAA; SGF Half-life (t½) ([2]; pH 1.5): 18 s; change in AUC0-4 h for plasma Lys [3]: did not alter the change in AUC0-4 h for plasma Lys
2 | SEQID-00352: nutritive polypeptide naturally produced in Corn, recombinantly expressed in E. coli (protein, Zea mays) MATKRSVGTLGEADLKGKKVFVRADLNVPLDDAQKITDDTRIRASVPTIKFLLEKGAKVILASHLGRPKGVTPKYSLKPLVPRLSELLGVEVVMANDCIGEEVEKLAAALPEGGVLLLENVRFYKEEEKNEPEFAKKLASVADLYVNDAFGTAHRAHASTEGVTKYLKPAVAGFLMQKELDYLVGAVANPKKPFAAIVGGSKVSTKIGVIESLLAKVDILILGGGMIYTFYKAQGYSVGKSLVEEDKLELATSLIEKAKAKGVSLLLPTDIVVADKFAADAESKIVPATAIPDDWMGLDVGPDATKTFDEALDTTKTVIWNGPMGVFEFQKFAAGTEAIAKKLAELTTTKGVTTIIGGGDSVAAVEKAGLADKMSHISTGGGASLELLEGKTLPGVLALDDA | 12 | 906.1 | 223 | change in AUC0-4 h for plasma Lys [4]: increased the change in AUC0-4 h for plasma Lys
3 | SEQID-00425: nutritive polypeptide (protein, listed as Kluyveromyces lactis) MSCLIPENLRNPKKVHENRLPTRAYYYDQDIFESLNGPWAFALFDAPLDAPDAKNLDWETAKKWSTISVPSHWELQEDWKYGKPIYTNVQYPIPIDIPNPPTVNPTGVYARTFELDSKSIESFEHRLRFEGVDNCYELYVNGQYVGFNKGSRNGAEFDIQKYVSEGENLVVVKVFKWSDSTYIEDQDQWWLSGIYRDVSLLKLPKKAHIEDVRVTTTFVDSQYQDAELSVKVDVQGSSYDHINFTLYEPEDGSKVYDASSLLNEENGNTTFSTKEFISFSTKKNEETAFKINVKAPEHWTAENPTLYKYQLDLIGSDGSVIQSIKHHVGFRQVELKDGNITVNGKDILFRGVNRHDHHPRFGRAVPLDFVVRDLILMKKFNINAVRNSHYPNHPKVYDLFDKLGFWVIDEADLETHGVQEPFNRHTNLEAEYPDTKNKLYDVNAHYLSDNPEYEVAYLDRASQLVLRDVNHPSIIIWSLGNEACYGRNHKAMYKLIKQLDPTRLVHYEGDLNALSADIFSFMYPTFEIMERWRKNHTDENGKFEKPLILCEYGHAMGNGPGSLKEYQELFYKEKFYQGGFIWEWANHGIEFEDVSTADGKLHKAYAYGGDFKEEVHDGVFIMDGLCNSEHNPTPGLVEYKKVIEPVHIKIAHGSVTITNKHDFITTDHLLFIDKDTGKTIDVPSLKPEESVTIPSDTTYVVAVLKDDAGVLKAGHEIAWGQAELPLKVPDFVTETAEKAAKINDGKRYVSVESSGLHFILDKLLGKIESLKVKGKEISSKFEGSSITFWRPPTNNDEPRDFKNWKKYNIDLMKQNIHGVSVEKGSNGSLAVVTVNSRISPVVFYYGFETVQKYTIFANKINLNTSMKLTGEYQPPDFPRVGYEFWLGDSYESFEWLGRGPGESYPDKKESQRFGLYDSKDVEEFVYDYPQENGNHTDTHFLNIKFEGAGKLSIFQKEKPFNFKISDEYGVDEAAHACDVKRYGRHYLRLDHAIHGVGSEACGPAVLDQYRLKAQDFNFEFDLAFE | 18 | 713.1 | 190 | 
4 | SEQID-00429: nutritive polypeptide (protein, listed as Bacillus licheniformis) ANLKGTLMQYFEWYMPNDGQHWKRLQNDSAYLAEHGITAVWIPPAYKGTSQADVGYGAYDLYDLGEFHQKGTVRTKYGTKGELQSAIKSLHSRDINVYGDVVINHKGGADATEDVTAVEVDPADRNRVISGEHRIKAWTHFHFPGRGSTYSDFKWHWYHFDGTDWDESRKLNRIYKFQGKAWDWEVSNENGNYDYLMYADIDYDHPDVAAEIKRWGTWYANELQLDGFRLDAVKHIKFSFLRDWVNHVREKTGKEMFTVAEYWQNDLGALENYLNKTNFNHSVFDVPLHYQFHAASTQGGGYDMRKLLNGTVVSKHPLKAVTFVDNHDTQPGQSLESTVQTWFKPLAYAFILTRESGYPQVFYGDMYGTKGDSQREIPALKHKIEPILKARKQYAYGAQHDYFDHHDIVGWTREGDSSVANSGLAALITDGPGGAKRMYVGRQNAGETWHDITGNRSEPVVINSEGWGEFHVNGGSVSIYVQR | 300 | 580.7 | 214 | 
5 | SEQID-00341: nutritive polypeptide (protein, listed as Saccharomyces cerevisiae, strain ATCC 204508 / S288c) MSTSREDSVYLAKLAEQAERYEEMVENMKTVASSGQELSVEERNLLSVAYKNVIGARRASWRIVSSIEQKEESKEKSEHQVELICSYRSKIETELTKISDDILSVLDSHLIPSATTGESKVFYYKMKGDYHRYLAEFSSGDAREKATNASLEAYKTASEIATTELPPTHPIRLGLALNFSVFYYEIQNSPDKACHLAKQAFDDAIAELDTLSEESYKDSTLIMQLLRDNLTLWTSDMSESGQAEDQQQQQQHQQQQPPAAAEGEAPK | 12 | 1143.5 | 166 | 
6 | Deglycosylated SEQID-00363: SEQID-00363 with mannose glycans enzymatically reduced (protein, deglycosylated; Aspergillus niger) ATLDSWLSNEATVARTAILNNIGADGAWVSGADSGIVVASPSTDNPDYFYTWTRDSGLVLKTLVDLFRNGDTSLLSTIENYISAQAIVQGISNPSGDLSSGAGLGEPKFNVDETAYTGSWGRPQRDGPALRATAMIGFGQWLLDNGYTSTATDIVWPLVRNDLSYVAQYWNQTGYDLWEEVNGSSFFTIAVQHRALVEGSAFATAVGSSCSWCDSQAPEILCYLQSFWTGSFILANFDSSRSGKDANTLLGSIHTFDPEAACDDSTFQPCSPRALANHKEVVDSFRSIYTLNDGLSDSEAVAVGRYPEDTYYNGNPWFLCTLAAAEQLYDALYQWDKQGSLEVTDVSLDFFKALYSDAATGTYSSSSSTYSSIVDAVKTFADGFVSIVETHAASNGSMSEQYDKSDGEQLSARDLTWSYAALLTANNRRNSVVPASWGETSASSVPGTCAATSAIGTYSSVTVTSWPSIVATGGTTTTATPTGSGSVTSTSKTTATASKTSTSTSSTSCTTPTAVAVTFDLTATTTYGENIYLVGSISQLGDWETSDGIALSADKYTSSDPLWYVTVTLPAGESFEYKFIRIESDDSVEWESDPNREYTVPQACGTSTATVTDTWR |  |  |  | SGF Half-life (t½) [2]: 258 s; bioavailability of amino acids (plasma free amino acids over 4 h) [3]: did not increase the bioavailability of Leucine or EAAs, it did increase the bioavailability of Serine and Threonine; total protein mass in digesta samples [8]: 7.7 mg
